Where two headings read alike, the source gives them in different places.
Key:
Assay in all cases: SPR
[1] = biological target: CA645 gL4gH5 Fab (human) [IgG part: P01857]
[2] = biological target: CA645 gL4gH5 Fab (human) [IgG part: P01857]; remark: listed apart in the source
[3] = biological target: CA645 gL4gH5 Fab (human) [IgG part: P01857]; remark: listed apart in the source
[4] = biological target: CA645 gL4gH5 Fab (human) [IgG part: P01857]; remark: listed apart in the source
[5] = biological target: CA645 gL4gH5 Fab (human) [IgG part: P01857]; remark: listed apart in the source
[6] = biological target: CA645 gL4gH5 Fab (human) [IgG part: P01857]; remark: listed apart in the source
human serum albumin [7] = biological target: T1, human serum albumin (Homo sapiens, UniProt P02768)
mouse serum albumin = mouse serum albumin (Mus musculus, UniProt P07724)
human serum albumin [8] = biological target: T1, human serum albumin; remark: listed apart in the source
human serum albumin [9] = biological target: T1, human serum albumin; remark: listed apart in the source
human serum albumin [10] = biological target: T1, human serum albumin; remark: listed apart in the source
human serum albumin [11] = biological target: human serum albumin (Homo sapiens, UniProt P02768); remark: listed apart in the source

mouse serum albumin, sequence (P07724 25-608): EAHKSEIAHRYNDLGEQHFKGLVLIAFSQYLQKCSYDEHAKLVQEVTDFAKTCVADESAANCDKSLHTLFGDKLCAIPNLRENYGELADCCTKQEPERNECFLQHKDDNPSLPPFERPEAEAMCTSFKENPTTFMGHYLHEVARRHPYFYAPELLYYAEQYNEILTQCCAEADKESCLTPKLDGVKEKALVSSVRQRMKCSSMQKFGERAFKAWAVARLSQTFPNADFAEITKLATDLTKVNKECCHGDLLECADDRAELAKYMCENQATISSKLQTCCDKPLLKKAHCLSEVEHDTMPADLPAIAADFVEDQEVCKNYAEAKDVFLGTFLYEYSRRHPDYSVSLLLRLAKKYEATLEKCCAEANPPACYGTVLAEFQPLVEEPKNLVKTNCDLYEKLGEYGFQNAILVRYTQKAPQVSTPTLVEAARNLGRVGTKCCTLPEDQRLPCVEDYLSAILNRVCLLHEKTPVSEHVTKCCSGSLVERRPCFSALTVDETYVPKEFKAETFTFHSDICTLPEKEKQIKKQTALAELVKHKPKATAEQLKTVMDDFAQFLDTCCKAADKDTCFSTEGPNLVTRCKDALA

## human serum albumin (from UniProt P02768 25-609) (natural protein)
[1]
  Kd: 10.7 nM
[2]
  Kd: 4.6 nM
[3]
  Kd: 1.23 nM
[4]
  Kd: 1.8 nM
[5]
  Kd: 13.3 nM
[6]
  Kd: 12.5 nM

B1: CA645 recombinant rabbit Fab (Fab, V domains shown)
VH: QSLEESGGRLVTPGTPLTLTCTVSGIDLSNYAINWVRQAPGKGLEWIGIIWASGTTFYATWAKGRFTISRPSTTVDLEMTSLTTADTATYFCARTVPGYSTAPYFDLWGPGTLVTVSS
VL: AAVLTQTPSPVSAAVGGTVTINCQSSPSVWSNFLSWYQQKPGQPPKLLIYEASKLTSGVPSRFKGSGSGTQFTLTISDVQCGDAATYYCGGGYSSISDTTFGGGTKVVVK
Human serum albumin [7]
  Kd: 0.31 nM
Mouse serum albumin
  Kd: 2.6 nM

B2: CA645 gL5gH5 Fab (Fab, V domains shown)
VH: EVQLLESGGGLVQPGGSLRLSCAVSGIDLSNYAINWVRQAPGKGLEWIGIIWASGTTFYATWAKGRFTISRDNSKNTVYLQMNSLRAEDTAVYYCARTVPGYSTAPYFDLWGQGTLVTVSS
VL: DIQMTQSPSSVSASVGDRVTITCQSSPSVASNFLSWYQQKPGKAPKLLIYEASKLTSGVPSRFSGSGSGTDFTLTISSLQPEDFATYYCGGGYSSISDTTFGGGTKVEIK
Human serum albumin [8]
  Kd: 453 nM
  koff: 0.0571 s⁻¹
  kon: 126000 M⁻¹ s⁻¹

B3: CA645 gL5gH37 Fab (Fab, V domains shown)
VH: EVQLLESGGGLVQPGGSLRLSCAVSGIDLSNYAINWVRQAPGKGLEWIGIIWASGTTEYATWAKGRFTISRDNSKNTVYLQMNSLRAEDTAVYYCARTVPGYSTAPYFDLWGQGTLVTVSS
VL: DIQMTQSPSSVSASVGDRVTITCQSSPSVASNFLSWYQQKPGKAPKLLIYEASKLTSGVPSRFSGSGSGTDFTLTISSLQPEDFATYYCGGGYSSISDTTFGGGTKVEIK
Human serum albumin [9]
  binding result: no binding

B4: CA645 gL4gH37 Fab (Fab, V domains shown)
VH: EVQLLESGGGLVQPGGSLRLSCAVSGIDLSNYAINWVRQAPGKGLEWIGIIWASGTTEYATWAKGRFTISRDNSKNTVYLQMNSLRAEDTAVYYCARTVPGYSTAPYFDLWGQGTLVTVSS
VL: DIQMTQSPSSVSASVGDRVTITCQSSPSVWSNFLSWYQQKPGKAPKLLIYEASKLTSGVPSRFSGSGSGTDFTLTISSLQPEDFATYYCGGGYSSISDTTFGGGTKVEIK
Human serum albumin [8]
  Kd: 955 nM
  koff: 0.0583 s⁻¹
  kon: 61000 M⁻¹ s⁻¹

B5: CA645 gL5gH47 Fab (Fab, V domains shown)
VH: EVQLLESGGGLVQPGGSLRLSCAVSGIDLSNYAINWVRQAPGKGLEWIGIIWASGTTFYATWAKGRFTISRDNSKNTVYLQMNSLRAEDTAVYYCARTVPGYSSAPYFDLWGQGTLVTVSS
VL: DIQMTQSPSSVSASVGDRVTITCQSSPSVASNFLSWYQQKPGKAPKLLIYEASKLTSGVPSRFSGSGSGTDFTLTISSLQPEDFATYYCGGGYSSISDTTFGGGTKVEIK
Human serum albumin [10]
  Kd: 52000 nM

B6: CA645 gL19gH5 Fab (Fab, V domains shown)
VH: EVQLLESGGGLVQPGGSLRLSCAVSGIDLSNYAINWVRQAPGKGLEWIGIIWASGTTFYATWAKGRFTISRDNSKNTVYLQMNSLRAEDTAVYYCARTVPGYSTAPYFDLWGQGTLVTVSS
VL: DIQMTQSPSSVSASVGDRVTITCQSSPSVWDNFLSWYQQKPGKAPKLLIYEASKLTSGVPSRFSGSGSGTDFTLTISSLQPEDFATYYCGGGYSSISDTTFGGGTKVEIK
Human serum albumin [11]
  Kd: 5 nM

— PMC5058626 (mAbs, 2016)
